B1: REGN6189 (bispecific antibody, human IgG4 S228P, kappa)
heavy 1: EVQLVESGGGLVQPGRSLRLSCAASGFTFDDYALHWVRQAPGKGLEWVSGISWTGGTIDYADSVKGRFTISRDNAKNSLYLQMSSLRTEDTAIYYCTRDIRGNWKYGGWFDPWGQGTLVTVSSASTKGPSVFPLAPCSRSTSESTAALGCLVKDYFPEPVTVSWNSGALTSGVHTFPAVLQSSGLYSLSSVVTVPSSSLGTKTYTCNVDHKPSNTKVDKRVESKYGPPCPPCPAPPVAGPSVFLFPPKPKDTLMISRTPEVTCVVVDVSQEDPEVQFNWYVDGVEVHNAKTKPREEQFNSTYRVVSVLTVLHQDWLNGKEYKCKVSNKGLPSSIEKTISKAKGQPREPQVYTLPPSQEEMTKNQVSLTCLVKGFYPSDIAVEWESNGQPENNYKTTPPVLDSDGSFFLYSRLTVDKSRWQEGNVFSCSVMHEALHNHYTQKSLSLSLGK
heavy 2: QVQLVESGGDVVQPGRSLRLSCTASGFTFSSFGMHWVRQAPGKGLEWVTFLSYDGSYKYYADSVKGRFTISRDNSKNTLYLQMNSLRAEDTAIFYCARDWLDYWGQGTLVTVSSASTKGPSVFPLAPCSRSTSESTAALGCLVKDYFPEPVTVSWNSGALTSGVHTFPAVLQSSGLYSLSSVVTVPSSSLGTKTYTCNVDHKPSNTKVDKRVESKYGPPCPPCPAPPVAGPSVFLFPPKPKDTLMISRTPEVTCVVVDVSQEDPEVQFNWYVDGVEVHNAKTKPREEQFNSTYRVVSVLTVLHQDWLNGKEYKCKVSNKGLPSSIEKTISKAKGQPREPQVYTLPPSQEEMTKNQVSLTCLVKGFYPSDIAVEWESNGQPENNYKTTPPVLDSDGSFFLYSRLTVDKSRWQEGNVFSCSVMHEALHNRFTQKSLSLSPGK
light: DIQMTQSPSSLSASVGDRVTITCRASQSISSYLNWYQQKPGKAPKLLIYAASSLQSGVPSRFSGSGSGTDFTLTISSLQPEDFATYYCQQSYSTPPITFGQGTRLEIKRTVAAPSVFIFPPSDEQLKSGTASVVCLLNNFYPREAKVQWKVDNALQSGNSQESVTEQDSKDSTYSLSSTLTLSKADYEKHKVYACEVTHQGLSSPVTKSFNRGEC
notes: common light chain 1-39; also called R6189; PD-L1x4-1BB REGN6189
B2: REGN6190 (bispecific antibody, human IgG4 S228P, kappa)
heavy 1: B1 heavy 1
heavy 2: EVQLVESGGGLVQPGGSLRLSCEASGFTFSSYEMNWVRQAPGKGLEWISHISSSGSSIYYADSVQGRFTISRDKAKNSLYLQMNSLRAEDTAVYYCTREGFEYGSSSGLKYYYYGLDVWGQGTTVTVSSASTKGPSVFPLAPCSRSTSESTAALGCLVKDYFPEPVTVSWNSGALTSGVHTFPAVLQSSGLYSLSSVVTVPSSSLGTKTYTCNVDHKPSNTKVDKRVESKYGPPCPPCPAPPVAGPSVFLFPPKPKDTLMISRTPEVTCVVVDVSQEDPEVQFNWYVDGVEVHNAKTKPREEQFNSTYRVVSVLTVLHQDWLNGKEYKCKVSNKGLPSSIEKTISKAKGQPREPQVYTLPPSQEEMTKNQVSLTCLVKGFYPSDIAVEWESNGQPENNYKTTPPVLDSDGSFFLYSRLTVDKSRWQEGNVFSCSVMHEALHNRFTQKSLSLSPGK
light: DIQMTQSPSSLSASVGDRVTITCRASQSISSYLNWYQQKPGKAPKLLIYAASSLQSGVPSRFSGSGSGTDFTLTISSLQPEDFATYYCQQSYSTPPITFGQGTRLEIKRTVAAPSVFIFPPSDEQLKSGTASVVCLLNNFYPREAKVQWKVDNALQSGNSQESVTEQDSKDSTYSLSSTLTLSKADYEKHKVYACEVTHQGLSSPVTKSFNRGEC
notes: common light chain 1-39; also called R6190; PD-L1x4-1BB REGN6190
B3: mAb9364 (antibody, V domains shown)
VH: EVQLVESGGGLVQPGRSLRLSCAASGFTFDDYALHWVRQAPGKGLEWVSGISWTGGTIDYADSVKGRFTISRDNAKNSLYLQMSSLRTEDTAIYYCTRDIRGNWKYGGWFDPWGQGTLVTVSS
VL: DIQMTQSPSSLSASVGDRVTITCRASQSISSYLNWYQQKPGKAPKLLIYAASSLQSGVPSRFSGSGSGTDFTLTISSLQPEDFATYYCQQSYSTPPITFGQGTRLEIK
notes: bivalent parental anti-PD-L1 antibody; captured by anti-human Fc); also called 9364P3; parental bivalent PD-L1 antibody

Experiments:
human 4-1BB on cells [1] = target: T1, human 4-1BB on cells (human, UniProt Q07011 24-255); experiment: flow cytometry, Jurkat/NFkB-Luc/h41BB cells
T1 construct: whole, on cells; also called h41BB; CD137
T1 sequence (Q07011 24-255): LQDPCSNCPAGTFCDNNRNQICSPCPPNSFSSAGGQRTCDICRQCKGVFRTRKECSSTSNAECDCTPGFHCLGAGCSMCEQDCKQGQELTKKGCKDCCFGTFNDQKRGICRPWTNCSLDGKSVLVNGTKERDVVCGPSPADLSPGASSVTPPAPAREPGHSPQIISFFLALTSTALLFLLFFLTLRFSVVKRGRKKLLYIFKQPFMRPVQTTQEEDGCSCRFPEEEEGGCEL
Method: (§1) Binding was detected by using a labeled secondary antibody and measuring fluorescence on a flow cytometer.
(§2) Assay set up: OVCAR-3+/−PD-L1 cells were lifted with trypsin, washed and resuspended in stain buffer (2% FBS in PBS). OVCAR-3 and Jurkat/NFkB-Luc/h41BB cells were counted and added to wells at 200,000 cells/well. Cells, in wells of 96-well round bottom plates, were pelleted by centrifugation and resuspended in 150 ul stain buffer (PBS containing 2% FBS). Plates were once again centrifuged and subsequently 100 ul of stain buffer alone or stain buffer containing antibody, titrated from 200 nM to 12 pM in a 9-point 1:4 dose titration were added to cells. Cells and antibodies were incubated for 30 min on ice and then washed in stain buffer. Cells were resuspended in 2 μg/ml allophycocyanin (APC) conjugated goat-anti human secondary antibody. A secondary antibody alone control was included. Cells and secondary were incubated for 30 min on ice and then washed in stain buffer. After a subsequent wash with PBS (containing no FBS), cells were resuspended in viability dye (reconstituted in DMSO according to the manufacturer's protocol and diluted 1:1000 in PBS) and incubated for 20 min on ice. They were then washed with stain buffer and resuspended in 2% PFA for 30 min at 4 C. After washing they were filtered and analyzed by flow cytometry. EC₅₀ values of the antibodies were determined from a 4 parameter logistic equation over a 9-point dose response curve (including secondary only control) using GraphPad Prism software.

[2] = target: T2, human 4-1BB expressed with a C-terminal myc-myc-hexahistidine tag (h4-1BB.mmH) (human); experiment: SPR Biacore, 25 C, antibody captured via anti-hFc, h4-1BB.mmH as analyte
T2 construct: also called hCD137 (4-1BB) mmH
T2 sequence (chain, as listed by the source limits assumed): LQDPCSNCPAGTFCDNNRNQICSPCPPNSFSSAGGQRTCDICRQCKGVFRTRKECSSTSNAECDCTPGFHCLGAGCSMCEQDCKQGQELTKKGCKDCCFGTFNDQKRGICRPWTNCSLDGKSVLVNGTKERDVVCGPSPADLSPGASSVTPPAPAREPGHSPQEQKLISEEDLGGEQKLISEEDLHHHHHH
Method: (§3) The CM5 Biacore sensor surface was derivatized by amine coupling with a monoclonal mouse anti-human Fc antibody. All Biacore binding studies were performed in a buffer composed of 0.01M HEPES pH 7.4, 0.15M NaCl, 3 mM EDTA, 0.05% v/v Surfactant P20 (HBS-EP running buffer). […] Antibody-reagent association was monitored for 5 minutes while dissociation in HBS-EP running buffer was monitored for 10 minutes. At the end of each cycle, the antibody capture surface was regenerated using a 10 sec injection of 20 mM phosphoric acid. All binding kinetics experiments were performed at 25° C.
(§4) Data analysis: The specific SPR-Biacore sensorgrams were obtained by a double referencing procedure. The double referencing was performed by first subtracting the signal of each injection over a reference surface (anti-hFc or anti-mFc) from the signal over the experimental surface (anti-hFc-captured anti-PD-L1×4-1BB antibodies) thereby removing contributions from refractive index changes. In addition, running buffer injections were performed to allow subtraction of the signal changes resulting from the dissociation of captured antibodies or antigens from the coupled anti-hFc or anti-mFc surface. Kinetic association (kₐ) and dissociation (kd) rate constants were determined by fitting the real-time sensorgrams to a 1:1 binding model using Scrubber v2.0c curve fitting software. Binding dissociation equilibrium constants (KD) and dissociative half-lives (t½) were calculated from the kinetic rate constants as: […]

human 4-1BB on cells [3] = target: T1, human 4-1BB on cells; experiment: cell-based or functional assay
[4] = target: T2, human 4-1BB expressed with a C-terminal …; experiment: blocking ELISA, 0.25 nM h4-1BB-mmh binding to coated 6His-Flag-h4-1BBL
Method: The 4-1BB blocking assay was performed similarly to the PD-L1 blocking assay. 6His-Flag-h4-1BBL protein ([…] in PBS) was coated onto a 96-well microtiter plate overnight at 4 °C. […] The plates were developed using TMB substrate solution (BD Biosciences) and the absorbance at 450 nm was measured on a SpectraMax I3x plate reader.
(§5) Binding data were analyzed using a sigmoidal (four-parameter logistic) dose-response model with GraphPad Prism™ software. […] The percent blocking of tested antibodies at the highest tested concentration of 100 nM was calculated based on the formula shown below: […]

human 4-1BB on cells [5] = target: T1, human 4-1BB on cells; experiment: cell-based or functional assay; remark: listed apart in the source
human PD-L1 on cells [6] = target: T3, human PD-L1 on cells (human, UniProt Q9NZQ7 19-290); experiment: flow cytometry, Jurkat/NFkB-Luc/h41BB cells (potential low endogenous PD-L1)
T3 construct: whole, on cells; the cell line stands under assay; also called hPD-L1; OVCAR3/hPD-L1
T3 sequence (Q9NZQ7 19-290): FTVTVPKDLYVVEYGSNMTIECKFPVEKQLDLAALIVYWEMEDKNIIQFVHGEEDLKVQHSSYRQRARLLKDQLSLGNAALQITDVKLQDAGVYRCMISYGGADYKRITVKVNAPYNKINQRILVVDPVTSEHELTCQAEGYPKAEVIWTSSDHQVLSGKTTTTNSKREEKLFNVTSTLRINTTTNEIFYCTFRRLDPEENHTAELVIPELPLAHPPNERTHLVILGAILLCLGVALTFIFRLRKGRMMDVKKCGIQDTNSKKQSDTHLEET
Method: as §1
as §2, with “After a subsequent wash with PBS (containing no FBS), cells were resuspended in viability dye (reconstituted in DMSO according to the manufacturer's protocol and diluted 1:1000 in PBS) and incubated for 20 min on ice. They were then washed with stain buffer and resuspended in 2% PFA for 30 min at 4 C.” left out

hPD-L1-mFc = target: T4, hPD-L1-mFc (human; mouse, UniProt Q9NZQ7 19-239); experiment: blocking ELISA, 0.7 nM hPD-L1-mFc binding to coated hPD1-hFc
T4 construct: range 19-239; also called human PD-L1 extracellular domain with mouse IgG2a Fc; not shown: Fc portion of mouse IgG2a at the C-terminus, amino acids E98-K330
T4 sequence (Q9NZQ7 19-239 limits assumed): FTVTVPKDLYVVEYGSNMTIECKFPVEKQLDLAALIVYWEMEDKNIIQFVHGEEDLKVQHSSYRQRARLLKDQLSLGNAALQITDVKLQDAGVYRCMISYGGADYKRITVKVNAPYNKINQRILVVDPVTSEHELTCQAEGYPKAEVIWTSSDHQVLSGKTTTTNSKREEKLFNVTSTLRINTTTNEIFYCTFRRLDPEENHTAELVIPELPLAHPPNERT
Method: In the PD-L1 blocking assay, hPD1-hFc protein ([…] in PBS) was coated onto a 96-well microtiter plate overnight at 4° C. […] The plates were then developed using TMB substrate solution (BD Biosciences) according to the manufacturer's recommended procedure and the absorbance at 450 nm was measured on a SpectraMax I3x plate reader.
as §5

human PD-L1 on cells [7] = target: T3, human PD-L1 on cells; experiment: cell-based or functional assay
human PD-L1 on cells [8] = target: T3, human PD-L1 on cells; experiment: flow cytometry, OVCAR3/hPD-L1 cells
Method: as §1
as §2, with “After a subsequent wash with PBS (containing no FBS), cells were resuspended in viability dye (reconstituted in DMSO according to the manufacturer's protocol and diluted 1:1000 in PBS) and incubated for 20 min on ice. They were then washed with stain buffer and resuspended in 2% PFA for 30 min at 4 C.” left out

human PD-L1 on cells [9] = target: T3, human PD-L1 on cells; experiment: flow cytometry, OVCAR3 cells (low endogenous PD-L1)
Method: as §1
as §2, with “After a subsequent wash with PBS (containing no FBS), cells were resuspended in viability dye (reconstituted in DMSO according to the manufacturer's protocol and diluted 1:1000 in PBS) and incubated for 20 min on ice. They were then washed with stain buffer and resuspended in 2% PFA for 30 min at 4 C.” left out

[10] = target: human PD-L1 expressed with a C-terminal myc-myc-hexahistidine tag (hPD-L1.mmH) (human); experiment: SPR Biacore, 25 C, antibody captured via anti-hFc, hPD-L1.mmH as analyte
Chain of human PD-L1 expressed with a C-terminal myc-myc-hexahistidine tag (hPD-L1.mmH) (human) (chain, as listed by the source limits assumed): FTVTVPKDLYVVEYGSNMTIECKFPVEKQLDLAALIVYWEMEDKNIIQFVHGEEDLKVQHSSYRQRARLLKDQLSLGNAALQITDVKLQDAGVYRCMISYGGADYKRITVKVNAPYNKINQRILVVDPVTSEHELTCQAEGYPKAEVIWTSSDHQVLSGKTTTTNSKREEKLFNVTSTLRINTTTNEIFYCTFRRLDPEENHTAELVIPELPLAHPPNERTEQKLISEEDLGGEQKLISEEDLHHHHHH
Method: as §3, with “a 12” for “a 10”
as §4

Binder | Fold change (max MFI over secondary antibody alone) (human 4-1BB on cells [1]) [fold] | Max [gMFI] (human 4-1BB on cells [1]) | 270 nM h4-1BB-mmH Bind (RU) [2] [RU] | Kd [2] [nM] | koff [2] [s⁻¹] | kon [2] [M⁻¹ s⁻¹] | t½ [2] [min] | NFkB-luciferase EC50, Jurkat/NFkB-Luc/h41BB + HEK293/hCD20/hPSMA/hPD-L1 (human 4-1BB on cells [3]) [nM] | NFkB-luciferase MAX (RLU), Jurkat/NFkB-Luc/h41BB + HEK293/hCD20/hPSMA (human 4-1BB on cells [3]) [RLU] | NFkB-luciferase MAX (RLU), Jurkat/NFkB-Luc/h41BB + HEK293/hCD20/hPSMA/hPD-L1 (human 4-1BB on cells [3]) [RLU] | % Blocking at 100 nM mAb [4] [%] | IL2 release EC50, human CD3+ T cells + HEK293/hCD20/hPSMA/hPD-L1 + CD20xCD3 (human 4-1BB on cells [5]) [pM] | IL2 release MAX, human CD3+ T cells + HEK293/hCD20/hPSMA + CD20xCD3 (human 4-1BB on cells [5]) [pg/mL] | IL2 release MAX, human CD3+ T cells + HEK293/hCD20/hPSMA, no CD20xCD3 (human 4-1BB on cells [5]) [pg/mL] | IL2 release MAX, human CD3+ T cells + HEK293/hCD20/hPSMA/hPD-L1 + CD20xCD3 (human 4-1BB on cells [5]) [pg/mL] | IL2 release MAX, human CD3+ T cells + HEK293/hCD20/hPSMA/hPD-L1, no CD20xCD3 (human 4-1BB on cells [5]) [pg/mL] | other results
B1 | 23.8 | 54000 | 25.4 | 61.6 | 0.0315 | 511000 | 0.4 | 7.03 | 175000 | 1.18e+06 | 64 | 1090 | 8.7 | 10.1 | 83.1 | 10.1 | –
B2 | 36.2 | 82000 | 30.7 | 30.3 | 0.021 | 692000 | 0.5 | 4.48 | 120000 | 973000 | 85 | 663 | 9.6 | 8.9 | 52.5 | 8.9 | –
B3 | – | – | 2 | – | – | – | – | – | 60900 | 70900 | 0 | – | 13.4 | 3.5 | 9.3 | 3.5 | Fold change (max MFI over secondary antibody alone) (human PD-L1 on cells [6]): 9.5 fold; binding result [2]: no binding (tested: 270 nM); IC50 (hPD-L1-mFc): 0.52 nM; AP-1 luciferase EC50, Jurkat/AP1-luc/hPD1 + WSU-DLCL2/hPD-L1 + CD20xCD3 (human PD-L1 on cells [7]): 6.51 pM; EC50 (human PD-L1 on cells [8]): 0.86 nM; Fold change (max MFI over secondary antibody alone) (human PD-L1 on cells [8]): 2200 fold; EC50 (human PD-L1 on cells [9]): 8.4 pM; Fold change (max MFI over secondary antibody alone) (human PD-L1 on cells [9]): 4.4 fold; Kd [10]: 0.13 nM; koff [10]: 7.42e-05 s⁻¹; kon [10]: 571000 M⁻¹ s⁻¹; t½ [10]: 156 min

Reference: patent US20250043017A1 (Regeneron, published 2025)
